Drawing on US20180265582A1, this text covers Affinity for 1 substance.

In this experiment the target is human PD-1 (programmed cell death 1) (human) (UniProt Q15116). Description: column Affinity (nM); by the footnote of Tables 3 and 11: FACS staining of endogenous cell surface PD-1 on activated CD4 T cells [row BMS-5C4].
UniProt Q15116, sequence (Q15116 25-288 limits assumed): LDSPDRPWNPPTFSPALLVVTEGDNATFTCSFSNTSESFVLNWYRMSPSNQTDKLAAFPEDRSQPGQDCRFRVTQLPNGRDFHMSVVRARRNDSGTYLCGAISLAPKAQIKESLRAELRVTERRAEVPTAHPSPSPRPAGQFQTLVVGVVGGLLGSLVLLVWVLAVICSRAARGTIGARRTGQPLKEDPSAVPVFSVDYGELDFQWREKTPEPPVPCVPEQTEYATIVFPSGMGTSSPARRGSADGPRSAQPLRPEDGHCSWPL

The substance BMS-5C4 (antibody) registered an Affinity of 0.6 nM.
